Measured values as given in patent US20170291948A1 (SAMSUNG LIFE PUBLIC WELFARE FOUNDATION, published 2017).

T1: human NRP1 protein (human, UniProt O14786-2 22-644, limits assumed)
T1 construct: Protein used for ELISA coating (200 ng per well) and SPR; also called Neuropilin 1
T1 sequence (looked up): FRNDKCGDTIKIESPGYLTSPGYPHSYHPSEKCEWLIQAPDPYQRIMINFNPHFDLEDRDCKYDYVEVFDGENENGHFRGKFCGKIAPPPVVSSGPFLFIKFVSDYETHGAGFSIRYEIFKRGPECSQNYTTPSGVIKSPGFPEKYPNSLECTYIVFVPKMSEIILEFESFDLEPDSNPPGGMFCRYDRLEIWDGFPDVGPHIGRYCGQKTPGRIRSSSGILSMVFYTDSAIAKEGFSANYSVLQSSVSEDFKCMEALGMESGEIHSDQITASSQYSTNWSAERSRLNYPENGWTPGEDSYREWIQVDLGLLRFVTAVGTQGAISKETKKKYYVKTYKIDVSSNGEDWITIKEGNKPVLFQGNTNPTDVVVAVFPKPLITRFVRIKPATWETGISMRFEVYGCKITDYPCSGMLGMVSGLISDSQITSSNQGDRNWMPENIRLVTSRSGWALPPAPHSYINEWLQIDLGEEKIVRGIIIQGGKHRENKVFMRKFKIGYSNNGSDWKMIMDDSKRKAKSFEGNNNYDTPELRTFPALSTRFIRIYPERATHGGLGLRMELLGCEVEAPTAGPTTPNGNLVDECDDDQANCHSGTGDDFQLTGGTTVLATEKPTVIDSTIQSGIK


Key:
[1] = molecular target: NRP1 expressed on the surface of cancer cells (NRP1-overexpressing patient-derived cells); U87MG glioblastoma … (human, UniProt O14786 22-923); test: cell-based or functional assay
[2] = molecular target: T1, human NRP1 protein; test: IgG on human NRP1; text says ELISA and SPR, the legend of FIG. 14 says ELISA

Row | Binder | inhibition of tumor cells migration in patient-derived cells [1] [%] | Kd [2] [nM]
1 | IRCR-101 (3H10) anti-NRP1 IgG (antibody, V domains shown) VH: EVQLLESGGGLVQPGGSLRLSCAASGFTFSSYYMSWVRQAPGKGLEWVSAISPGSSNKYYADSVKGRFTISRDNSKNTLYLQMNSLRAEDTAVYYCARRKYMFDYWGQGTLVTVSS VL: QSVLTQPPSASGTPGQRVTISCTGSSSNIGNNDVYWYQQLPGTAPKLLIYSDSNRPSGVPDRFSGSKSGTSASLAISGLRSEDEADYYCASWDSSLSGYVFGGGTKLTVL | > 50 | –
2 | 4F12 anti-NRP1 IgG (antibody, V domains shown, scFv converted to IgG and made in the Expi 293F system, 150 kD; also called 4F12 antibody) VH: EVQLLESGGGLVQPGGSLRLSCAASGFTFSGYAMSWVRQAPGKGLEWVSGISPGSGSTYYADSVKGRFTISRDNSKNTLYLQMNSLRAEDTAVYYCAKRKTRFDYWGQGTLVTVSS VL: not shown | 40 | 0.6
3 | 1A03 anti-NRP1 IgG (antibody, V domains shown) VH: EVQLLESGGGLVQPGGSLRLSCAASGFTFSSYYMSWVRQAPGKGLEWVSAISPGSSNKYYADSVQGRFTISRDNSKNTLYLQMNSLRAEDTAVYYCARRKKSFDYWGQGTLVTVSS VL: QSVLTQPPSASGTPGQRVTISCSGPSSNIGNNDVSWYQQLPGTAPKLLIYSDNNRPSGVPDRFSGSKSGTSASLAISGLRSEDEADYYCGAWVASLSAYVFGGGTKLTVL | > 50 | –
